According to patent publication US20060251658A1 (Sanofi, published 2006):

B1: PET1074B9 germlined IgG4 (antibody, V domains shown)
VH: QVQLVQSGAEVKKPGSSVKVSCKASGYTFSSNVISWVRQAPGQGLEWMGGVIPIVDIANYAQRFKGRVTITADESTSTTYMELSSLRSEDTAVYYCALPRAFVLDAMDYWGQGTLVTVSS
VL: ETVLTQSPGTLSLSPGERATLSCRASQSLGSSYLAWYQQKPGQAPRLLIYGASSRAPGIPDRFSGSGSGTDFTLTISRLEPEDFAVYYCQQYADSPITFGQGTRLEIK
B2: 1D11.16 murine pan-specific anti-TGFβ monoclonal antibody (antibody, from another filing, V domains shown)
VH: QVQLQQSGPELVRPGASVKLSCKASGYIFITYWMNWVKQRPGQGLEWIGQIFPASGSTNYNEMFEGKATLTVDTSSSTAYMQLSSLTSEDSAVYYCARGDGNYALDAMDYWGQGTSVTVSS
VL: DIVLTQSPASLAVSLGQRATISCRASESVDSYGNSFMHWYQQKSGQPPKLLIYLASNLESGVPARFSGSGSRTDFTLTIDPVEADDAATYYCQQNNEDPLTFGAGTKLEIK

Target: Recombinant human TGFβ1 (human, UniProt P01137 279-390)
Sequence (P01137 279-390 limits assumed): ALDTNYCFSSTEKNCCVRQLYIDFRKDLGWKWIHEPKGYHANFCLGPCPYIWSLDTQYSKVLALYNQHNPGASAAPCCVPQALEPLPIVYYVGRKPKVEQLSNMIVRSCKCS
Experiment: cell-based or functional assay

| Binder | Geometric Mean IC50, MLEC proliferation assay (n = 6; full dose response curve not obtained) | % neutralisation at 91 pM antibody, MLEC proliferation assay |
| --- | --- | --- |
| B1 | < 1 nM |  |
| B2 |  | 12% |
